How the values were obtained:
[1] = target: Histone H3.2 (human) (UniProt Q71DI3); assay: in vivo azide-A-DSBSO XL-MS, HEK 293 cells
[2] = target: Histone H4 (human) (UniProt P62805); assay: in vivo azide-A-DSBSO XL-MS, HEK 293 cells

unique cross-linked peptides [1]: 8 peptides | unique cross-linked peptides [2]: 10 peptides
Substance: Histone H2B (core histone, isoforms not told apart)
